The values below come from US20160222085A1 (CHILDREN S HOSPITAL OF PHILADELPHIA, published 2016).

The target in assay [1] is FV-810 (FV-DT), Factor V with amino acids 811-1491 deleted from the B-domain (human) (UniProt P12259). The assay can be described thus: global fit of prethrombin-2 activation rates (1-50 nM FXa, 0-1000 nM BR, 5 nM FV-810, 50 uM PCPS) to a tight, competitive binding model.
For assay [2] the target is unchanged. The assay can be described thus: fluorescence anisotropy, displacement; FXa S195A titrated into 30 nM OG488-BR, 20 nM FV-810, 50 uM PCPS, 25 C; displaced ligand: OG488-BR. On the technique in general: Fluorescence polarisation rises when a labelled molecule tumbles more slowly, as on binding a larger partner.
The target is the same in assay [3]. Briefly: fluorescence anisotropy displacement of OG488-BR; FXaS195A titrated into 30 nM OG488-BR, 20 nM FV-810, 50 uM PCPS.
Assay [4] deals with T1, Oregon Green 488 maleimide-modified BR (OG488-BR) (human, Oregon Green 488 maleimide on the added N-terminal Cys).
T1 construct: also called fluorescently labeled FVBR
T1 peptide: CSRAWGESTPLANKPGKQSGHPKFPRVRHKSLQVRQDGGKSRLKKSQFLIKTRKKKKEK
Briefly: fluorescence anisotropy; buffer-pretreated FV-810 R709Q titrated into 30 nM OG488-BR with 50 uM PCPS. On the procedure:
(§1) FV-810, FV-810^R709Q (▴), FV-810^R1545Q (♦), and FV-810^QQ (▪) were pretreated with buffer (FIG. 14A) or thrombin (FIG. 14B).
(§2) Steady-state fluorescence anisotropy was measured at 25° C. in a PTI Quanta-Master™ fluorescence spectrophotometer (Photon Technology International, Birmingham, N.J.) using excitation and emission wavelengths of 480 and 520 nm, respectively, with long-pass filters (KV500, CVI Melles Griot) in the emission beam.

In assay [5] the target is T1, Oregon Green 488 maleimide-modified BR …. Briefly: fluorescence anisotropy; buffer-pretreated FV-810 R1545Q titrated into 30 nM OG488-BR with 50 uM PCPS. As to the method: as §1, §2
Assay [6] has as its target FV-810 (FV-DT), Factor V with amino acids 811-1491 deleted from the B-domain (human) (UniProt P12259). Briefly: fluorescence anisotropy displacement of OG488-BR.
The target is the same in assay [7]. The assay can be described thus: fluorescence anisotropy displacement of OG488-BR; 30 nM OG488-BR, 20 nM FV-810, 50 uM PCPS; stoichiometry of 1 assumed.
Target sequence in this assay (P12259 other isoform, or with tags, fused parts or gaps, form in doubt): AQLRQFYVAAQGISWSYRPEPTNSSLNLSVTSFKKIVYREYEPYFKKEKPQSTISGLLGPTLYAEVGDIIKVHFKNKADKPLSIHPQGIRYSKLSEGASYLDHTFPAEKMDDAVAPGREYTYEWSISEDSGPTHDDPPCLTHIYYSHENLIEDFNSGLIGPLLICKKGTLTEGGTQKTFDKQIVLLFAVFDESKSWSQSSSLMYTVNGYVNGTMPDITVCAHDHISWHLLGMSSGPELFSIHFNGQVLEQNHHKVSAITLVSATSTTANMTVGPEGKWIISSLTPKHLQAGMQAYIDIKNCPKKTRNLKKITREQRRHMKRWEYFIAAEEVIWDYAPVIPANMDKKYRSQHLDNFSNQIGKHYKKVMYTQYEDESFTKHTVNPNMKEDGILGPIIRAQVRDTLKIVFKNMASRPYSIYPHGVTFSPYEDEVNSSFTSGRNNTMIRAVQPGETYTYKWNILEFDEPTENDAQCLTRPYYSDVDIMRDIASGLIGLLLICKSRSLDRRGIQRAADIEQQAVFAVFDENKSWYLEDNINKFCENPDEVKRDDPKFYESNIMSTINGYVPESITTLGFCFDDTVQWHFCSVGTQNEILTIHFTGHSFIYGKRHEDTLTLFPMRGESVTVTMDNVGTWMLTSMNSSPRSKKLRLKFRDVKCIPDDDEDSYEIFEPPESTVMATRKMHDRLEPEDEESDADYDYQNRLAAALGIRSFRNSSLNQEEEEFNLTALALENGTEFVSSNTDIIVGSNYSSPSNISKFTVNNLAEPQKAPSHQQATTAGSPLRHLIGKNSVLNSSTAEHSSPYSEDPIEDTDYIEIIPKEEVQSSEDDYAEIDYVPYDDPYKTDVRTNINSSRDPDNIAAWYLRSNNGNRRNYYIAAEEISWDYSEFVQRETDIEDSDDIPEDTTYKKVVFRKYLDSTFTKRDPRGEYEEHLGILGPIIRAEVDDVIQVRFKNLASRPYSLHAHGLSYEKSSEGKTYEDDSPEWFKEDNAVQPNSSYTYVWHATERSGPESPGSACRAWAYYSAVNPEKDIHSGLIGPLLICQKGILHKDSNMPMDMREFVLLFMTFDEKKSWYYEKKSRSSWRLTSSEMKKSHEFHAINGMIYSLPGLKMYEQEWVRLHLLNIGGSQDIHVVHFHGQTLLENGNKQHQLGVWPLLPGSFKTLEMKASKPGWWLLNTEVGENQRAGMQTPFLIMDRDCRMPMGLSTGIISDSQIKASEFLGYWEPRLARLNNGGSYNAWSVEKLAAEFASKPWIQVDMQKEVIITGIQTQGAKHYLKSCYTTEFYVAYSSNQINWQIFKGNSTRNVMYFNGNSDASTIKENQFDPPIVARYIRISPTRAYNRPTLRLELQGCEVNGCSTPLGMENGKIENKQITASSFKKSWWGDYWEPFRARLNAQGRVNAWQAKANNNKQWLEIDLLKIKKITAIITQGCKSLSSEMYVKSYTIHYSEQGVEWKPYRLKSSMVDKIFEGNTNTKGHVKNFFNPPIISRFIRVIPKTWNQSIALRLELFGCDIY
Assay [8] shares this target. Briefly: fluorescence anisotropy, displacement; bovine BR titrated into 30 nM OG488-BR, 20 nM FV-810, 50 uM PCPS, 25 C; competitor: OG488-BR.

For the molecule “Factor Xa (FXa) (from UniProt P00742 41-179; P00742 235-488) (enzyme)”, the Kd (commonly the equilibrium constant for the complex coming apart) in assay [1] is 2 nM. Consider “catalytically inactive FXa^S195A (from UniProt P00742 41-179; P00742 235-488) (enzyme)”, for which the IC50 (read off the curve) in assay [2] worked out at 40 nM. This molecule also registered a n (stoichiometry) (mol of FXa/mol of FV-810) in assay [3] of 1.1.

B1: FV-810^R709Q (other, human, UniProt P12259 29-838, looked up)
chain: AQLRQFYVAAQGISWSYRPEPTNSSLNLSVTSFKKIVYREYEPYFKKEKPQSTISGLLGPTLYAEVGDIIKVHFKNKADKPLSIHPQGIRYSKLSEGASYLDHTFPAEKMDDAVAPGREYTYEWSISEDSGPTHDDPPCLTHIYYSHENLIEDFNSGLIGPLLICKKGTLTEGGTQKTFDKQIVLLFAVFDESKSWSQSSSLMYTVNGYVNGTMPDITVCAHDHISWHLLGMSSGPELFSIHFNGQVLEQNHHKVSAITLVSATSTTANMTVGPEGKWIISSLTPKHLQAGMQAYIDIKNCPKKTRNLKKITREQRRHMKRWEYFIAAEEVIWDYAPVIPANMDKKYRSQHLDNFSNQIGKHYKKVMYTQYEDESFTKHTVNPNMKEDGILGPIIRAQVRDTLKIVFKNMASRPYSIYPHGVTFSPYEDEVNSSFTSGRNNTMIRAVQPGETYTYKWNILEFDEPTENDAQCLTRPYYSDVDIMRDIASGLIGLLLICKSRSLDRRGIQRAADIEQQAVFAVFDENKSWYLEDNINKFCENPDEVKRDDPKFYESNIMSTINGYVPESITTLGFCFDDTVQWHFCSVGTQNEILTIHFTGHSFIYGKRHEDTLTLFPMRGESVTVTMDNVGTWMLTSMNSSPRSKKLRLKFRDVKCIPDDDEDSYEIFEPPESTVMATRKMHDRLEPEDEESDADYDYQNRLAAALGIQSFRNSSLNQEEEEFNLTALALENGTEFVSSNTDIIVGSNYSSPSNISKFTVNNLAEPQKAPSHQQATTAGSPLRHLIGKNSVLNSSTAEHSSPYSEDPIEDTDYIEIIPKEEVQSSEDDYAEIDYVPYDDPYKTDVRTNINSSRDPDNIAAWYLRSNNGNRRNYYIAAEEISWDYSEFVQRETDIEDSDDIPEDTTYKKVVFRKYLDSTFTKRDPRGEYEEHLGILGPIIRAEVDDVIQVRFKNLASRPYSLHAHGLSYEKSSEGKTYEDDSPEWFKEDNAVQPNSSYTYVWHATERSGPESPGSACRAWAYYSAVNPEKDIHSGLIGPLLICQKGILHKDSNMPMDMREFVLLFMTFDEKKSWYYEKKSRSSWRLTSSEMKKSHEFHAINGMIYSLPGLKMYEQEWVRLHLLNIGGSQDIHVVHFHGQTLLENGNKQHQLGVWPLLPGSFKTLEMKASKPGWWLLNTEVGENQRAGMQTPFLIMDRDCRMPMGLSTGIISDSQIKASEFLGYWEPRLARLNNGGSYNAWSVEKLAAEFASKPWIQVDMQKEVIITGIQTQGAKHYLKSCYTTEFYVAYSSNQINWQIFKGNSTRNVMYFNGNSDASTIKENQFDPPIVARYIRISPTRAYNRPTLRLELQGCEVNGCSTPLGMENGKIENKQITASSFKKSWWGDYWEPFRARLNAQGRVNAWQAKANNNKQWLEIDLLKIKKITAIITQGCKSLSSEMYVKSYTIHYSEQGVEWKPYRLKSSMVDKIFEGNTNTKGHVKNFFNPPIISRFIRVIPKTWNQSIALRLELFGCDIY
notes: range 1-810;range 1492-2196; mature numbering
In the case of B1, the EC50 (read off the curve) (as a rule, the concentration giving half of the maximal effect) in assay [4] fell in the range of 15 to 20 nM.

B2: FV-810^R1545Q (other, human, UniProt P12259 29-838, looked up)
chain: AQLRQFYVAAQGISWSYRPEPTNSSLNLSVTSFKKIVYREYEPYFKKEKPQSTISGLLGPTLYAEVGDIIKVHFKNKADKPLSIHPQGIRYSKLSEGASYLDHTFPAEKMDDAVAPGREYTYEWSISEDSGPTHDDPPCLTHIYYSHENLIEDFNSGLIGPLLICKKGTLTEGGTQKTFDKQIVLLFAVFDESKSWSQSSSLMYTVNGYVNGTMPDITVCAHDHISWHLLGMSSGPELFSIHFNGQVLEQNHHKVSAITLVSATSTTANMTVGPEGKWIISSLTPKHLQAGMQAYIDIKNCPKKTRNLKKITREQRRHMKRWEYFIAAEEVIWDYAPVIPANMDKKYRSQHLDNFSNQIGKHYKKVMYTQYEDESFTKHTVNPNMKEDGILGPIIRAQVRDTLKIVFKNMASRPYSIYPHGVTFSPYEDEVNSSFTSGRNNTMIRAVQPGETYTYKWNILEFDEPTENDAQCLTRPYYSDVDIMRDIASGLIGLLLICKSRSLDRRGIQRAADIEQQAVFAVFDENKSWYLEDNINKFCENPDEVKRDDPKFYESNIMSTINGYVPESITTLGFCFDDTVQWHFCSVGTQNEILTIHFTGHSFIYGKRHEDTLTLFPMRGESVTVTMDNVGTWMLTSMNSSPRSKKLRLKFRDVKCIPDDDEDSYEIFEPPESTVMATRKMHDRLEPEDEESDADYDYQNRLAAALGIRSFRNSSLNQEEEEFNLTALALENGTEFVSSNTDIIVGSNYSSPSNISKFTVNNLAEPQKAPSHQQATTAGSPLRHLIGKNSVLNSSTAEHSSPYSEDPIEDTDYIEIIPKEEVQSSEDDYAEIDYVPYDDPYKTDVRTNINSSRDPDNIAAWYLQSNNGNRRNYYIAAEEISWDYSEFVQRETDIEDSDDIPEDTTYKKVVFRKYLDSTFTKRDPRGEYEEHLGILGPIIRAEVDDVIQVRFKNLASRPYSLHAHGLSYEKSSEGKTYEDDSPEWFKEDNAVQPNSSYTYVWHATERSGPESPGSACRAWAYYSAVNPEKDIHSGLIGPLLICQKGILHKDSNMPMDMREFVLLFMTFDEKKSWYYEKKSRSSWRLTSSEMKKSHEFHAINGMIYSLPGLKMYEQEWVRLHLLNIGGSQDIHVVHFHGQTLLENGNKQHQLGVWPLLPGSFKTLEMKASKPGWWLLNTEVGENQRAGMQTPFLIMDRDCRMPMGLSTGIISDSQIKASEFLGYWEPRLARLNNGGSYNAWSVEKLAAEFASKPWIQVDMQKEVIITGIQTQGAKHYLKSCYTTEFYVAYSSNQINWQIFKGNSTRNVMYFNGNSDASTIKENQFDPPIVARYIRISPTRAYNRPTLRLELQGCEVNGCSTPLGMENGKIENKQITASSFKKSWWGDYWEPFRARLNAQGRVNAWQAKANNNKQWLEIDLLKIKKITAIITQGCKSLSSEMYVKSYTIHYSEQGVEWKPYRLKSSMVDKIFEGNTNTKGHVKNFFNPPIISRFIRVIPKTWNQSIALRLELFGCDIY
notes: as for B1
On to B2, for which the “EC50 (read off the curve)” value in assay [5] lay in the range of 10 to 15 nM.

B3: Bovine BR (Bos taurus Ser938-Lys996) (peptide, UniProt Q28107 966-1024, looked up)
peptide: SRTWGENIPFKNSHGKQSGHPTFLVTRRKPLQDRQDRRNSRLKEGLPLIRTRRKKKEEK
Molecule B3 had a fold weaker binding than the human BR in assay [6] of 10 fold. The molecule also returned a Kd in assay [7] of 28.3 nM. Moreover, in assay [8], the IC50 (read off the curve) was in the range of 300 to 400 nM.
